In US10760112B2, “Enzymatic activity assays for glucocerebrosidase” (Shire Human Genetic Therapies, Inc., priority 2014, dated 2020):

What was measured:
[1] = Enzyme kinetics assay with C18:1 glucosylceramide substrate, glucose detected by HPAEC-PAD; assay type: biochemical
Description: Sonication was used to achieve a consistent substrate preparation. A sonicator was pre-set to 60% AMPL and 5 minutes. A 4 oz. amber bottle of substrate dilution buffer (4 mM taurocholic acid, 0.2% v/v oleic acid in citrate/phosphate buffer pH 5.0) was placed in the noise isolation chamber and the sonicator probe was immersed into the solution. The substrate dilution buffer was sonicated at 60% AMPL for 5 minutes. Following sonication, the noise isolation chamber was opened. A second cycle of sonication at 60% AMPL for 5 minutes was initiated while the amber bottle was gently swirled. After 5 minutes, the substrate dilution buffer was cloudy. Approximately 15-20 mg of C18:1 glucosylceramide was weighed in a clean 2 oz. amber bottle. Sonicated substrate dilution buffer was added to bring the concentration of C18:1 glucosylceramide to 0.64 mg/mL (approximately 880 μM). Next, the same sonication steps were repeated for the 2 oz. amber bottle of 880 μM C18:1 glucosylceramide, with the additional consideration that, prior to the step of gently swirling the bottle while sonicating, it was ensured that all substrate particles were in the biphasic mixture. Sonication and swirling were continued until there were no visible particles in the mixture.
After the sonication procedure, two stocks were prepared for use in the assay. A first reagent reservoir filled with sonicated substrate dilution buffer. A second reagent reservoir was filled with 6 mL sonicated substrate dilution buffer and 2 mL of the 880 μM C18:1 glucosylceramide (final substrate concentration of 220 μM C18:1 glucosylceramide).
A dilution series of substrate was prepared in a 96-well plate having columns 1-12, rows A-H, and a well volume of 0.5 mL. Each well of rows A-G was filled with 170 μL substrate dilution buffer. In addition, 200 μL substrate solution of different concentrations were transferred to the appropriate wells of rows A to G according to Table 2. Substrate dilution buffer and substrate solution were mixed by pipetting.
Frozen experimental and assay control samples were thawed in a 37° C. water bath for <5 min. In the present examples, the sample is a sample of enzyme. After thawing, each tube was placed on ice. Dilutions of the samples were then prepared at room temperature. To prepare the sample dilutions, sample dilution buffer (50 mM citrate buffer pH 6.0, 0.75 mg/ml BSA) was placed on ice in centrifuge tubes, each tube containing 990 μL sonicated sample dilution buffer. Tubes of sample dilution buffer were briefly vortexed (1-3 seconds) and pulse centrifuged to collect the liquid to the bottom of the tube. A 10 μL aliquot of each sample was transferred into a dedicated tube of sample dilution buffer to prepare a 1:100 dilution. Samples were diluted in triplicate. Samples were briefly vortexed to ensure proper mixing. Next, a 10 μL aliquot of each of 1:100 diluted sample was transferred to a dedicated second tube having been preloaded with 990 μL sample dilution buffer, resulting in a 1:10,000 dilution. Samples were briefly vortexed to ensure proper mixing. Next, the 1:10,000 dilution was used to prepare a 1 mL dilution having a final concentration of 0.02 ng/μL. In particular, the volume of the 1:10,000 dilution needed to dilute the enzyme to 0.02 ng/μL in 1 mL was determined and transferred from the second tube into the a third dedicated tube preloaded with an amount of sample dilution buffer calculated to result in a total volume of 1 mL at 0.02 ng/μL. Accordingly, when 10 μL of 0.02 ng/μL enzyme is mixed with 100 μL of substrate solution, the final concentration of enzyme is 0.0290 nM, assuming a monomer with a relative molecular mass of 62.8 kDa. Samples were briefly vortexed to ensure proper mixing. Final dilution tubes were placed on ice.
Briefly, velaglucerase alfa was incubated with C18:1 glucosylceramide at eight concentrations of substrate (2.70-200 μM) and in 110 μL reactions for 20 min at 37° C. with appropriate standards and/or controls. […]

[2] = Velaglucerase activity at varying levels of sodium taurocholate; assay type: biochemical; details: range tested 2 mM to 25 mM sodium taurocholate
Description: Assays of velaglucerase activity were carried out in the presence of varying levels of sodium taurocholate or oleic acid. Sodium taurocholate is an anionic detergent that has been, in some cases, used to facilitate lipid-based substrate solubility in aqueous environments. The effect of sodium taurocholate was examined over a concentration range of 2 mM to 25 mM (FIG. 6).

[3] = Photo Stress (forced degradation, oxidation by light exposure)

optimal concentration of sodium taurocholate [2]: 6.5 mM
sodium taurocholate concentration above which activity gradually declined [2]: above 8 mM
B1: velaglucerase: recombinant form of glucocerebrosidase approved as long-term enzyme replacement therapy for Gaucher disease (SEQ ID NO: 1) (protein)
chain: ARPCIPKSFGYSSVVCVCNATYCDSFDPPTFPALGTFSRYESTRSGRRMELSMGPIQANHTGTGLLLTLQPEQKFQKVKGFGGAMTDAAALNILALSPPAQNLLLKSYFSEEGIGYNIIRVPMASCDFSIRTYTYADTPDDFQLHNFSLPEEDTKLKIPLIHRALQLAQRPVSLLASPWTSPTWLKTNGAVNGKGSLKGQPGDIYHQTWARYFVKFLDAYAEHKLQFWAVTAENEPSAGLLSGYPFQCLGFTPEHQRDFIARDLGPTLANSTHHNVRLLMLDDQRLLLPHWAKVVLTDPEAAKYVHGIAVHWYLDFLAPAKATLGETHRLFPNTMLFASEACVGSKFWEQSVRLGSWDRGMQYSHSIITNLLYHVVGWTDWNLALNPEGGPNWVRNFVDS
Km ([1]; Baseline (unstressed control)): 4.9 µM
kcat ([1]; Baseline (unstressed control)): 90.7 s⁻¹
Km [1, 3]: 6.7 µM
kcat [1, 3]: 76.8 s⁻¹
change in kcat, stressed sample vs baseline ([1]; photo stress vs unstressed control): clear decrease
change in Km, stressed sample vs baseline ([1]; photo stress vs unstressed control, not considered significant): minor increase
